{"source": "paper PMC11481526", "biological_target": "Toxoplasma gondii ABCB7-like (TgABCB7L), TGGT1_269000 (Toxoplasma gondii)", "assay": "native gel or EMSA; BN-PAGE (4-16% Bis-Tris) of ABCB7L-HA parasites solubilised in 1% βDDM on ice, immunoblot with anti-HA; bovine mitochondrial membranes as size marker", "data": [{"substance": "Toxoplasma gondii ABCB7-like (TgABCB7L), TGGT1_269000 (natural protein)", "values": [{"measurement": "stoichiometry N", "result": 2}]}]}
